Test [1] concerns the target HA-tagged calnexin with deletion of the lumenal repeat segment (CNXΔ276-409) (UniProt P27824). The test can be described thus: co-IP.
Test [2] deals with endogenous calnexin (CNX) (human (endogenous in HEK293T and HeLa)) (UniProt P27824). The test can be described thus: co-IP.
In test [3] the target is ABCA1-FLAG (ATP-Binding Cassette A1 cholesterol transporter, FLAG-tagged) (UniProt O95477). The test can be described thus: co-IP.
Test [4] has as its target myristoylated NefSF2 protein (HIV-1 SF2, UniProt P03407 1-210, myristoylated). The test can be described thus: SPR.

What is called Kd is the equilibrium constant for the complex coming apart. A higher Kd goes with lower affinity. What is called koff is the rate constant with which the complex falls apart. A lower koff goes with slow dissociation. One may read the kon as a measure of how fast the partners come together.

In turn, “HIV-1 Nef expressed from the Nef_(cons) vector (wild type) (natural protein)” gave a percent reduction of co-precipitated Nef against WT CNX in test [1] of 40%.
Take “Nef K4A (single lysine mutant of Nef_(cons)) (natural protein)”: the percent reduction of co-precipitated Nef against WT Nef in test [2] worked out at 80%.
“Nef K4,7A (double lysine mutant of Nef_(cons)) (natural protein)”: the percent reduction of co-precipitated Nef against wild-type Nef in test [3] was 30%.
In test [2], “Nef K7A (single lysine mutant of Nef_(cons)) (natural protein)” displayed a percent reduction of co-precipitated Nef against WT Nef of 70%.

B1: cytoplasmic tail of calnexin (CNX-CT), recombinant (domain or fragment, UniProt P27824 503-592, looked up)
chain: CSGKKQTSGMEYKKTDAPQPDVKEEEEEKEEEKDKGDEEEEGEEKLEEKQKSDAEEDGGTVSQEEEDRKPKAEEDEILNRSPRNRKPRRE
In test [4], B1 came in with a Kd of 9.4 nM, a koff of 0.00857 s⁻¹ and a kon of 908000 M⁻¹ s⁻¹.

Source of the values: article PMC5040351 (Arteriosclerosis, thrombosis, and vascular biology, 2016).
